This assay has as its target IL12 receptor on pre-activated mouse CD8+ T cells (mouse) (UniProt Q60837). Put plainly: cell-based or functional assay.

Chain of IL12 receptor on pre-activated mouse CD8+ T cells (mouse) (Q60837 20-738, chain 1 of 2): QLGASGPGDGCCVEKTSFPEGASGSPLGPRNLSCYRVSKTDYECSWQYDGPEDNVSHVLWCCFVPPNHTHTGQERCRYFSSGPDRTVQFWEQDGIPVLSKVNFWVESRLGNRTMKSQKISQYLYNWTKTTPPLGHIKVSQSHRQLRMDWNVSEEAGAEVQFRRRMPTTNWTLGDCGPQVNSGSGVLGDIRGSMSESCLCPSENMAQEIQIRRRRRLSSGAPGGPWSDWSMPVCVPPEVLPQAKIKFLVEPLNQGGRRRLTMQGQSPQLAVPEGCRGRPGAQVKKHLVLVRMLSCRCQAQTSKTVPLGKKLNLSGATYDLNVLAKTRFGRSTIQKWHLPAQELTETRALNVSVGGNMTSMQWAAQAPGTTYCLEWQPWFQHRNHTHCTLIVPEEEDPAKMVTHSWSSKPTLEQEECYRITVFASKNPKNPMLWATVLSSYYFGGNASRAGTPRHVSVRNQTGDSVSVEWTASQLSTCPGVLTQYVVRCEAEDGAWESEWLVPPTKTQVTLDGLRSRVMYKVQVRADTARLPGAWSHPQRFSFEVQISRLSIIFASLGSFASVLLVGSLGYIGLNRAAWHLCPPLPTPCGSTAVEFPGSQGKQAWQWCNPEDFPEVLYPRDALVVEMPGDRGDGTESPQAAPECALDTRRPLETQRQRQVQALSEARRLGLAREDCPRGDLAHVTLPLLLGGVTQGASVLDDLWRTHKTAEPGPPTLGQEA
Chain of IL12 receptor on pre-activated mouse CD8+ T cells (mouse) (chain, as listed by the source, chain 2 of 2): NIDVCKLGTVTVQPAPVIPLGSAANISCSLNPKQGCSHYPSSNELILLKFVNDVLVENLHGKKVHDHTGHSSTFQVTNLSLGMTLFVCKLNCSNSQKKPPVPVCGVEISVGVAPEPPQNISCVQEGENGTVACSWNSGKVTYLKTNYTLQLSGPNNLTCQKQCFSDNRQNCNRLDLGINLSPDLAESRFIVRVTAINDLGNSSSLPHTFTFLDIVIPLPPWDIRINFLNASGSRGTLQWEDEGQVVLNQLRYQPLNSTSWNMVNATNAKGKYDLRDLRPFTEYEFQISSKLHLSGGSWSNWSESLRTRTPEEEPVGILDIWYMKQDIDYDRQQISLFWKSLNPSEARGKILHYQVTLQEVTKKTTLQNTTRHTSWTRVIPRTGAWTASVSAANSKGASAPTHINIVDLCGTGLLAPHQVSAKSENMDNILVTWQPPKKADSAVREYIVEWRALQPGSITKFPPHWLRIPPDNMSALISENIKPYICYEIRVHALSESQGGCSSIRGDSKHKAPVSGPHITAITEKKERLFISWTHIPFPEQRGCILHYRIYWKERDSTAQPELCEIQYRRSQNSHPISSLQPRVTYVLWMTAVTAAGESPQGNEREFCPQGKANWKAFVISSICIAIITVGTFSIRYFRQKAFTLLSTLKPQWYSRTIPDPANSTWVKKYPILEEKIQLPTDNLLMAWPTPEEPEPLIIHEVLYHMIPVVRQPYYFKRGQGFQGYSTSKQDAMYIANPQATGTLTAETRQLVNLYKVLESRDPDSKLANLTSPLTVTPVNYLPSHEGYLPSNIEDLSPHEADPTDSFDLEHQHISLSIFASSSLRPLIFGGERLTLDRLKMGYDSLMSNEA

The substance IL12Rβ1-(G3S)11-IL12 displayed an EC50 of STAT4 phosphorylation in pre-activated mouse CD8+ T cells, fold against unmodified IL12 of 80 fold.
